Results published in US20240342207, “MODIFIED NUCLEIC ACID COMPOSITIONS AND ASSOCIATED METHODS FOR TREATMENT OF PHENYLKETONURIA” (BOARD OF REGENTS, THE UNIVERSITY OF TEXAS SYSTEM, published 2024).

Assays:
Assay in all cases: EMSA; one of 13 of 17 binding mutants; affinity not decreased
Details in all cases: tags: His-tag, E. coli; stem-loop
PAH F39L = biological target: T1, PAH F39L (Homo sapiens, UniProt P00439 P00439:1-452, F39L)
T1 sequence: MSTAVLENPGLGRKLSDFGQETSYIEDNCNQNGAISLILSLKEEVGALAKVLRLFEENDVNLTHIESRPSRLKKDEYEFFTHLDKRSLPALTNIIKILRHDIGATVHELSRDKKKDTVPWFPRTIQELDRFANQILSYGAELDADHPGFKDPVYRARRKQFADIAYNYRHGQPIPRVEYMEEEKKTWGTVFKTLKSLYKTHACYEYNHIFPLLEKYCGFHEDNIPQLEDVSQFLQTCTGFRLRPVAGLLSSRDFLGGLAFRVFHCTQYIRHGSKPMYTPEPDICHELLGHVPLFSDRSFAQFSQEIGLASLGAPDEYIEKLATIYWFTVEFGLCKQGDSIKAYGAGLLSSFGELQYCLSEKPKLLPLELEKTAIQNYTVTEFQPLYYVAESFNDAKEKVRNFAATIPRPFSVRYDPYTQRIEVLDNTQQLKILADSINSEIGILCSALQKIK

PAH I65S = biological target: T2, PAH I65S (Homo sapiens, UniProt P00439 P00439:1-452, I65S)
T2 sequence: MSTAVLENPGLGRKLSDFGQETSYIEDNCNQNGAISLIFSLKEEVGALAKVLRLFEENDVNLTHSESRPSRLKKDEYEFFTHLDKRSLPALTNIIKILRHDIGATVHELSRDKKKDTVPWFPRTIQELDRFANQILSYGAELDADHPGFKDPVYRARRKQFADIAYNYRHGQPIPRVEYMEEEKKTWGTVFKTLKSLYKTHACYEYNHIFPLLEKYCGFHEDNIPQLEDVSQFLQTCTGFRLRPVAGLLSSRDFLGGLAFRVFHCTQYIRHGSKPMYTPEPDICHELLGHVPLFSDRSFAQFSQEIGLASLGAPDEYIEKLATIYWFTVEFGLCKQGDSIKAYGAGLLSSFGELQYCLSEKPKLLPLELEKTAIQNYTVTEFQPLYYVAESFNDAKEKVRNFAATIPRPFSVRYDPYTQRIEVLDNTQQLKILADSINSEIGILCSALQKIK

PAH R408W = biological target: T3, PAH R408W (Homo sapiens, UniProt P00439 P00439:1-452, R408W)
T3 sequence: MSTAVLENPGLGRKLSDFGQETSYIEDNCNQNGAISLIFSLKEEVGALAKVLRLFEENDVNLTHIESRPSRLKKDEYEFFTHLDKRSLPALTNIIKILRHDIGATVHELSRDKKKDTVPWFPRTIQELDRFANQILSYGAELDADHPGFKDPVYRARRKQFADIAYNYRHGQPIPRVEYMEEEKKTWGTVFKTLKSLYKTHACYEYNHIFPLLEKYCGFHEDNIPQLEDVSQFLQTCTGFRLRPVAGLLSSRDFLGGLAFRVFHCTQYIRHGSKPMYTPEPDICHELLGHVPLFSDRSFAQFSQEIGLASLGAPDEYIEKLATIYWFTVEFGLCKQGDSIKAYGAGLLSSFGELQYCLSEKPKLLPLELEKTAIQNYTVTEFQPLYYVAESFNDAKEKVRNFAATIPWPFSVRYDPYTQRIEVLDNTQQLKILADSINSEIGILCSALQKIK

PAH P281L = biological target: T4, PAH P281L (Homo sapiens, UniProt P00439 P00439:1-452, P281L)
T4 sequence: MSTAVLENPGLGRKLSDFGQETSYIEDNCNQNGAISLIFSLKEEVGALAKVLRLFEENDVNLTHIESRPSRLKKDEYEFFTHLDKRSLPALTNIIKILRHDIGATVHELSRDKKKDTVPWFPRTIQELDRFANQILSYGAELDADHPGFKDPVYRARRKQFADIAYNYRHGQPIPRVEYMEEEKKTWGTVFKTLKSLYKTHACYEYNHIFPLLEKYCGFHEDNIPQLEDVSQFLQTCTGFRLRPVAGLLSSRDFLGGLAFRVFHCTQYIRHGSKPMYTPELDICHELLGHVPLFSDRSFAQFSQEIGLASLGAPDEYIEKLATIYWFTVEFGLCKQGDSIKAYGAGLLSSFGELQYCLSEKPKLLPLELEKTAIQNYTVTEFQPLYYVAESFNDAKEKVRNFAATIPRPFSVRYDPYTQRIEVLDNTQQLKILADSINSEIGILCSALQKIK

PAH P275L = biological target: T5, PAH P275L (Homo sapiens, UniProt P00439 P00439:1-452, P275L)
T5 sequence: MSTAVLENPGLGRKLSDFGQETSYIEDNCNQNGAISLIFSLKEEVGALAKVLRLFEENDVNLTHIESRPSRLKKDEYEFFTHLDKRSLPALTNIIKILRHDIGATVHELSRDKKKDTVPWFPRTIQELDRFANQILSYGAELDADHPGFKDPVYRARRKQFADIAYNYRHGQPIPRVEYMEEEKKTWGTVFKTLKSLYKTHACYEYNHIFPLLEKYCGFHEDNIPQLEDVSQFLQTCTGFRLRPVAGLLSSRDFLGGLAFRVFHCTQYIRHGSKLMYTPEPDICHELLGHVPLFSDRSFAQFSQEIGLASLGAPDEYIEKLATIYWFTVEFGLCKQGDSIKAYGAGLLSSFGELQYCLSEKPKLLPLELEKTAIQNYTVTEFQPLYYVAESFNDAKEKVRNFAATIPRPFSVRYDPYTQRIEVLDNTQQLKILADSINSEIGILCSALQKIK

Measured: binding result

CAAAAUGCAUAUGUAUCUUUG (ssRNA) [HULC 181-201 mimic]
binds: all assays above
